Laboratory results: paper PMC7793260, “MreC and MreD balance the interaction between the elongasome proteins PBP2 and RodA” (PLoS Genetics, 2020)
Substitutions are numbered along the chain they refer to.

Key:
Assay in all cases: FRET or BRET; two-plasmid spectral FRET in E. coli LMC500 cells; mCherry fusion as acceptor, mKO fusion as donor; Gb4 medium, steady state at 28 C, 15 uM IPTG for two mass doublings, FAGA-fixed; acceptor FRET efficiency (EfA) by spectral unmixing
[1] = target: the molecule itself
mKO-^MalF37PBP2 = target: T1, mKO-^MalF37PBP2 (E. coli, UniProt P02916 1-37; P0AD65 46-633); conditions: partners not purified
T1 construct: MalF of E. coli, the first 37 residues (cytoplasmic N-terminus and transmembrane helix), amplified from the MG1655 genome; PBP2 of E. coli excluding the first 45 residues (NT and TMH removed, periplasmic domain kept); also called PBP2 with the NT and TMH of MalF; source: E. coli LMC500, expressed from plasmid (15 uM IPTG), in fixed cells; not shown: mKO, N-terminal, kept
T1 chain (looked up): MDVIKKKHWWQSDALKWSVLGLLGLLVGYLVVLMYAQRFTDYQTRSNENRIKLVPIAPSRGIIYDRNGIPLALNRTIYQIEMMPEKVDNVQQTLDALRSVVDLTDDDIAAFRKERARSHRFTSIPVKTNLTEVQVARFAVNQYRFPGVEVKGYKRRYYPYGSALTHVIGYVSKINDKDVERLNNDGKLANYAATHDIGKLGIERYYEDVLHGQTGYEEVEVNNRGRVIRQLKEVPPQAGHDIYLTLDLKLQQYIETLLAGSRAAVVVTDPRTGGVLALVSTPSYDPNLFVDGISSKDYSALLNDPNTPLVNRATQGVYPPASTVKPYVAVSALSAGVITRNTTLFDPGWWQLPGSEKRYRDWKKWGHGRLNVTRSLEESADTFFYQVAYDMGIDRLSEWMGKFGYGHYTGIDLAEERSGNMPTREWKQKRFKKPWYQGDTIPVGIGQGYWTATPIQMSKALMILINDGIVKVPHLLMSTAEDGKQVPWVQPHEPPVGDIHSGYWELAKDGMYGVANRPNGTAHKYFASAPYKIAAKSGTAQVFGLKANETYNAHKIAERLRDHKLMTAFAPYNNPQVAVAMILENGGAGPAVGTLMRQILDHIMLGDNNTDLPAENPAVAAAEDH

mKO-PBP2^S330C = target: T2, mKO-PBP2^S330C (E. coli, UniProt P0AD65 1-633, S330C); conditions: partners not purified
T2 construct: made from pWA004 by mutagenesis PCR; source: E. coli LMC500, expressed from plasmid (15 uM IPTG), in fixed cells; not shown: mKO, N-terminal, kept
T2 sequence (looked up): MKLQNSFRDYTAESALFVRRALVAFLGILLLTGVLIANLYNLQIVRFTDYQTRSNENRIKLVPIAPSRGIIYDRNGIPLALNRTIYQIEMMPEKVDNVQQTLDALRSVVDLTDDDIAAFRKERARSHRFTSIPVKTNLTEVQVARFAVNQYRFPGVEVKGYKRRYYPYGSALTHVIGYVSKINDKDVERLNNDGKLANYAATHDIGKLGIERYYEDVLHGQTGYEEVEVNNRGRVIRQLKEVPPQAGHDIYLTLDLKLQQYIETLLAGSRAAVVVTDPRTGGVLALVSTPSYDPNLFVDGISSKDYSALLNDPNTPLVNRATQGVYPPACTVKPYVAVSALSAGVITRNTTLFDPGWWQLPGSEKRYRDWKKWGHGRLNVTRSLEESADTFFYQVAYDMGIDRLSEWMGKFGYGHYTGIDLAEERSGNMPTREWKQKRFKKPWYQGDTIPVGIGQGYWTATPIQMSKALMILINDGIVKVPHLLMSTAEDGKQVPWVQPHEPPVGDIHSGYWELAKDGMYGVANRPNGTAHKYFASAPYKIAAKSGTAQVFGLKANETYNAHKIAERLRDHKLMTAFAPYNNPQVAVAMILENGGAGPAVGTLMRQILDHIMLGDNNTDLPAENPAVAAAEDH

mKO-PBP2^L61R = target: T3, mKO-PBP2^L61R (E. coli, UniProt P0AD65 1-633, L61R); conditions: partners not purified
T3 construct: PBP2 of E. coli with L61R (hyperactive variant); made from pWA004 by mutagenesis PCR; also called hyperactive PBP2^L61R; source: E. coli LMC500, expressed from plasmid (15 uM IPTG), in fixed cells; not shown: mKO, N-terminal, kept
T3 sequence (looked up): T2 sequence (looked up) with L61R, C330S

B1: RodA (wild type), fused to mCherry or to mKO (enzyme, E. coli, UniProt P0ABG7 1-370, looked up)
chain: MTDNPNKKTFWDKVHLDPTMLLILLALLVYSALVIWSASGQDIGMMERKIGQIAMGLVIMVVMAQIPPRVYEGWAPYLYIICIILLVAVDAFGAISKGAQRWLDLGIVRFQPSEIAKIAVPLMVARFINRDVCPPSLKNTGIALVLIFMPTLLVAAQPDLGTSILVALSGLFVLFLSGLSWRLIGVAVVLVAAFIPILWFFLMHDYQRQRVMMLLDPESDPLGAGYHIIQSKIAIGSGGLRGKGWLHGTQSQLEFLPERHTDFIFAVLAEELGLVGILILLALYILLIMRGLWIAARAQTTFGRVMAGGLMLILFVYVFVNIGMVSGILPVVGVPLPLVSYGGSALIVLMAGFGIVMSIHTHRKMLSKSV
notes: RodA, peptidoglycan glycosyltransferase of the E. coli elongasome; wild-type rodA gene; mCh-RodA in all others; also called mCh-RodA; mKO-RodA; source: E. coli LMC500, expressed from plasmid (15 uM IPTG), in fixed cells; not shown: mCherry (acceptor construct, pSAV047-RodA) or mKO (donor construct, pXL56), N-terminal, kept
EfA (acceptor FRET efficiency) [1]: 5.5%
EfA (acceptor FRET efficiency) (mKO-^MalF37PBP2): 8.2%
EfA (acceptor FRET efficiency) (mKO-PBP2^S330C): 10.2%
EfA (acceptor FRET efficiency) (mKO-PBP2^L61R): 10.8%
